Substitutions are numbered along the chain they refer to. Names and notes keep the numbering of the source.
B1: TRIM21 RING E13A (protein)
chain: MASAARLTMMWEAVTCPICLDPFVEPVSIECGHSFCQECISQVGKGGGSVCPVCRQRFLLKNLRPNRQLANMVNNLKEISQEARE
B2: TRIM21 RING E13R (protein)
chain: B1 chain with A13R

Target: ubiquitin, P0CG48
Sequence (P0CG48 whole entry, looked up): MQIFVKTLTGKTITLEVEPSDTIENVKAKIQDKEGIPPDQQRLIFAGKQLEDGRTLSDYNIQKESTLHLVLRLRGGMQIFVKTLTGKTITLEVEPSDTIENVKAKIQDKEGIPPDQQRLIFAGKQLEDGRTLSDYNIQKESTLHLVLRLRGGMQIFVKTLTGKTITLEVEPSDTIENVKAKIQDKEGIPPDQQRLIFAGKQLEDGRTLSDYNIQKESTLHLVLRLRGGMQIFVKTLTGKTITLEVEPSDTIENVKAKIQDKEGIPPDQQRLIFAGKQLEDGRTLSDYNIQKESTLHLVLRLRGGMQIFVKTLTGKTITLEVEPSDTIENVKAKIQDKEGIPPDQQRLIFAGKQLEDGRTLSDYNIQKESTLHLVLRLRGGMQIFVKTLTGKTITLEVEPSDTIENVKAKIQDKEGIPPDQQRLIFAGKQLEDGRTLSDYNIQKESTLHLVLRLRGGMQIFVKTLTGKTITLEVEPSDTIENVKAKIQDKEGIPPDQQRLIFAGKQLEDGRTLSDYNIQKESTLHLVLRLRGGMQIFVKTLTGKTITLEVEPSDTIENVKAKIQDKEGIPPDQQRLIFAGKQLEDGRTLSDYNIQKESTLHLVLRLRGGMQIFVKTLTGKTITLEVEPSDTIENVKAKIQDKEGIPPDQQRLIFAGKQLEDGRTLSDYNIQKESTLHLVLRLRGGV

Protein | Ube2W-mediated TRIM21 RING monoubiquitination time-course
B1 | TRIM21 mutants E13A and E13R both showed a slight reduction in activity
B2 | TRIM21 mutants E13A and E13R both showed a slight reduction in activity

Reference: US20250376495
